Tested on: Escherichia coli TOP10
Assay: shrunken log2 fold change of peptide-encoding DNA abundance (4.5 h post-induction vs induction); higher = less antimicrobial activity (less host growth inhibition)
Conditions: time post-induction: 4.5 h; library: site-saturation at positions 5, 18, 19, 20
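Also: peptides expressed intracellularly from a pBAD plasmid library in pooled LB shake-flask culture, induced with 0.3% L-arabinose, DNA abundance read by NGS, three biological replicates, DESeq2 with apeglm shrinkage.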

Sequence | shrunken log2 fold change
RRIRCRPPRLPRPRPRPYMVPRP | -0.462
RRIRCRPPRLPRPRPRPYPTPRP | -0.517
RRIRCRPPRLPRPRPRPYPYPRP | -0.248
RRIRCRPPRLPRPRPRPYRGPRP | -0.992
RRIRCRPPRLPRPRPRPYTIPRP | -0.342
RRIRCRPPRLPRPRPRPYVSPRP | -0.207
RRIRCRPPRLPRPRPRPYWFPRP | -0.74
RRIRCRPPRLPRPRPRPYYVPRP | -0.519
RRIRDRPPRLPRPRPRPACDPRP | 0.472
RRIRDRPPRLPRPRPRPACMPRP | 0.242
RRIRDRPPRLPRPRPRPADGPRP | -0.00193
RRIRDRPPRLPRPRPRPADLPRP | -0.0491
RRIRDRPPRLPRPRPRPAFKPRP | 0.0611
RRIRDRPPRLPRPRPRPAFRPRP | 0.293
RRIRDRPPRLPRPRPRPAGMPRP | 0.411
RRIRDRPPRLPRPRPRPAGSPRP | 0.19
RRIRDRPPRLPRPRPRPAGTPRP | 0.207
RRIRDRPPRLPRPRPRPAITPRP | 0.284
RRIRDRPPRLPRPRPRPALKPRP | 0.407
RRIRDRPPRLPRPRPRPALTPRP | 0.468
RRIRDRPPRLPRPRPRPALVPRP | 0.0217
RRIRDRPPRLPRPRPRPAMGPRP | 0.399
RRIRDRPPRLPRPRPRPAMKPRP | -0.0728
RRIRDRPPRLPRPRPRPAMMPRP | -0.0512
RRIRDRPPRLPRPRPRPAMRPRP | 0.415

Sequence | shrunken log2 fold change
RRIRDRPPRLPRPRPRPAMSPRP | 0.184
RRIRDRPPRLPRPRPRPANMPRP | -0.229
RRIRDRPPRLPRPRPRPAPFPRP | 0.196
RRIRDRPPRLPRPRPRPASFPRP | 0.136
RRIRDRPPRLPRPRPRPASHPRP | 0.0378
RRIRDRPPRLPRPRPRPATDPRP | 0.0254
RRIRDRPPRLPRPRPRPATYPRP | -0.141
RRIRDRPPRLPRPRPRPAVKPRP | 0.368
RRIRDRPPRLPRPRPRPAVLPRP | -0.014
RRIRDRPPRLPRPRPRPAWHPRP | 0.2
RRIRDRPPRLPRPRPRPAWWPRP | 0.388
RRIRDRPPRLPRPRPRPCCNPRP | 0.255
RRIRDRPPRLPRPRPRPCFTPRP | 0.0373
RRIRDRPPRLPRPRPRPCGIPRP | 0.0258
RRIRDRPPRLPRPRPRPCGRPRP | 0.147
RRIRDRPPRLPRPRPRPCGWPRP | 0.335
RRIRDRPPRLPRPRPRPCHCPRP | -0.158
RRIRDRPPRLPRPRPRPCIFPRP | 0.168
RRIRDRPPRLPRPRPRPCLFPRP | 0.076
RRIRDRPPRLPRPRPRPCLTPRP | 0.0157
RRIRDRPPRLPRPRPRPCMNPRP | 0.119
RRIRDRPPRLPRPRPRPCPAPRP | -0.156
RRIRDRPPRLPRPRPRPCPFPRP | -0.0587
RRIRDRPPRLPRPRPRPCPQPRP | -0.132
RRIRDRPPRLPRPRPRPCRCPRP | 0.0101

Sequence | shrunken log2 fold change
RRIRDRPPRLPRPRPRPCTPPRP | -0.153
RRIRDRPPRLPRPRPRPCTRPRP | 0.0736
RRIRDRPPRLPRPRPRPCTWPRP | 0.0101
RRIRDRPPRLPRPRPRPCVMPRP | 0.543
RRIRDRPPRLPRPRPRPCWGPRP | 0.0493
RRIRDRPPRLPRPRPRPCWRPRP | 0.101
RRIRDRPPRLPRPRPRPCWTPRP | 0.122
RRIRDRPPRLPRPRPRPCYAPRP | 0.326
RRIRDRPPRLPRPRPRPCYQPRP | -0.0177
RRIRDRPPRLPRPRPRPDACPRP | 0.52
RRIRDRPPRLPRPRPRPDATPRP | 0.0857
RRIRDRPPRLPRPRPRPDDQPRP | 0.259
RRIRDRPPRLPRPRPRPDDRPRP | 0.108
RRIRDRPPRLPRPRPRPDEHPRP | 0.0279
RRIRDRPPRLPRPRPRPDGNPRP | -0.00172
RRIRDRPPRLPRPRPRPDLPPRP | 0.337
RRIRDRPPRLPRPRPRPDMNPRP | 0.287
RRIRDRPPRLPRPRPRPDNKPRP | -0.413
RRIRDRPPRLPRPRPRPDPKPRP | 0.189
RRIRDRPPRLPRPRPRPDPTPRP | 0.0932
RRIRDRPPRLPRPRPRPDQNPRP | -0.0888
RRIRDRPPRLPRPRPRPDQSPRP | 0.0019
RRIRDRPPRLPRPRPRPDSWPRP | 0.0194
RRIRDRPPRLPRPRPRPDTAPRP | -0.0593
RRIRDRPPRLPRPRPRPDTGPRP | 0.018

Sequence | shrunken log2 fold change
RRIRDRPPRLPRPRPRPDWYPRP | -0.0602
RRIRDRPPRLPRPRPRPDYDPRP | -0.0133
RRIRDRPPRLPRPRPRPEAKPRP | 2.4
RRIRDRPPRLPRPRPRPEAPPRP | 0.412
RRIRDRPPRLPRPRPRPEESPRP | 0.14
RRIRDRPPRLPRPRPRPEFKPRP | -0.0319
RRIRDRPPRLPRPRPRPEFLPRP | 0.0745
RRIRDRPPRLPRPRPRPEFMPRP | 0.419
RRIRDRPPRLPRPRPRPEGRPRP | 0.517
RRIRDRPPRLPRPRPRPEGWPRP | 1.78
RRIRDRPPRLPRPRPRPELIPRP | 0.0219
RRIRDRPPRLPRPRPRPEMCPRP | 0.0536
RRIRDRPPRLPRPRPRPEMLPRP | 1.4
RRIRDRPPRLPRPRPRPENKPRP | 0.0324
RRIRDRPPRLPRPRPRPEPGPRP | 0.707
RRIRDRPPRLPRPRPRPEPSPRP | 0.885
RRIRDRPPRLPRPRPRPEPYPRP | 0.118
RRIRDRPPRLPRPRPRPEQGPRP | 0.0995
RRIRDRPPRLPRPRPRPEQNPRP | 0.517
RRIRDRPPRLPRPRPRPEQSPRP | 0.964
RRIRDRPPRLPRPRPRPERSPRP | 0.239
RRIRDRPPRLPRPRPRPESAPRP | 0.345
RRIRDRPPRLPRPRPRPESGPRP | 0.778
RRIRDRPPRLPRPRPRPETSPRP | -0.0166
RRIRDRPPRLPRPRPRPEVDPRP | 0.00961

Sequence | shrunken log2 fold change
RRIRDRPPRLPRPRPRPEVKPRP | -0.0257
RRIRDRPPRLPRPRPRPEWAPRP | 0.746
RRIRDRPPRLPRPRPRPEWTPRP | 0.147
RRIRDRPPRLPRPRPRPEYDPRP | 0.00968
RRIRDRPPRLPRPRPRPFAPPRP | 0.318
RRIRDRPPRLPRPRPRPFAYPRP | -0.101
RRIRDRPPRLPRPRPRPFCMPRP | 0.00343
RRIRDRPPRLPRPRPRPFCSPRP | 0.217
RRIRDRPPRLPRPRPRPFEPPRP | -0.057
RRIRDRPPRLPRPRPRPFESPRP | -0.00133
RRIRDRPPRLPRPRPRPFFTPRP | -0.024
RRIRDRPPRLPRPRPRPFGHPRP | -0.138
RRIRDRPPRLPRPRPRPFGRPRP | -0.0125
RRIRDRPPRLPRPRPRPFIQPRP | -0.238
RRIRDRPPRLPRPRPRPFIVPRP | -0.193
RRIRDRPPRLPRPRPRPFKCPRP | 0.0039
RRIRDRPPRLPRPRPRPFKNPRP | 0.11
RRIRDRPPRLPRPRPRPFLIPRP | 0.0926
RRIRDRPPRLPRPRPRPFLYPRP | 1.81
RRIRDRPPRLPRPRPRPFMLPRP | -0.342
RRIRDRPPRLPRPRPRPFPIPRP | 0.0144
RRIRDRPPRLPRPRPRPFQAPRP | 0.0185
RRIRDRPPRLPRPRPRPFQLPRP | -0.0537
RRIRDRPPRLPRPRPRPFQYPRP | 0.0242
RRIRDRPPRLPRPRPRPFRCPRP | -0.0101

Sequence | shrunken log2 fold change
RRIRDRPPRLPRPRPRPFRIPRP | 0.0432
RRIRDRPPRLPRPRPRPFRMPRP | -0.125
RRIRDRPPRLPRPRPRPFSVPRP | -0.0199
RRIRDRPPRLPRPRPRPFTFPRP | -0.167
RRIRDRPPRLPRPRPRPFTHPRP | -0.0968
RRIRDRPPRLPRPRPRPFTMPRP | -0.0235
RRIRDRPPRLPRPRPRPFTQPRP | -0.147
RRIRDRPPRLPRPRPRPFVLPRP | 0.045
RRIRDRPPRLPRPRPRPFVYPRP | -0.344
RRIRDRPPRLPRPRPRPFWCPRP | 0.136
RRIRDRPPRLPRPRPRPFWYPRP | -0.167
RRIRDRPPRLPRPRPRPFYPPRP | -0.109
RRIRDRPPRLPRPRPRPFYSPRP | -0.304
RRIRDRPPRLPRPRPRPGAAPRP | 1.09
RRIRDRPPRLPRPRPRPGAHPRP | 0.651
RRIRDRPPRLPRPRPRPGAIPRP | 0.271
RRIRDRPPRLPRPRPRPGAMPRP | 0.408
RRIRDRPPRLPRPRPRPGCDPRP | 0.79
RRIRDRPPRLPRPRPRPGCPPRP | 0.0445
RRIRDRPPRLPRPRPRPGDGPRP | 0.85
RRIRDRPPRLPRPRPRPGFGPRP | 0.264
RRIRDRPPRLPRPRPRPGFIPRP | -0.202
RRIRDRPPRLPRPRPRPGFLPRP | 0.368
RRIRDRPPRLPRPRPRPGGTPRP | 0.454
RRIRDRPPRLPRPRPRPGHFPRP | 0.0123
